Assay results published in patent publication US9688764B2, “Methods of treating breast cancer by administering anti-human prolactin receptor (PRLR) antibodies” (REGENERON PHARMACEUTICALS, INC., priority 2013, dated 2017).
Numbering of substitutions follows the chain as printed.

B1: H1H6958N2: human IgG1 Fc form of H2M6958N2; anti-PRLR, receptor blocking; HCVR/LCVR SEQ ID NOs 290/298 (antibody, V domains shown)
VH: QVQLVESGGGVVQPGRSLRLSCGASGFTFRNYGMQWVRQGPGKGLEWVTLISFDGNDKYYADSVKGRFTISRDNSKNTLFLQMNSLRTEDTAVYYCARGGDFDYWGQGTLVTVSS
VL: DIQMTQSPSSLSASVGDRVTITCRASQDIRKDLGWYQQKPGKAPKRLIYAASSLHSGVPSRFSGSGSGTEFTLTISSLQPEDFATYYCLQHNSYPMYTFGQGTKLEIK
modifications: human IgG1 Fc
B2: H1H6959N2: human IgG1 Fc form of H2M6959N2; anti-PRLR; HCVR/LCVR SEQ ID NOs 306/314 (antibody, V domains shown)
VH: EVQLVESGGGLVQPGRSLRLSCAASGFTFDDYAMHWVRQAPGKGLEWVSGISWHSGIIGYADSVKGRFTISRDNAKNSLYLQMNSLRTEDAALYYCAKIGSYFYFDSWGQGTLVTVSS
VL: EIVLTQSPGTLSLSPGERATLSCRASQSVSSNYLAWYQQKPGQAPRLLIYGASSRATGIPDRFSGSGSGTDFTLTISRLEPEDFAVYYCQQFGSSGYTFGQGTNLEIK
modifications: human IgG1 Fc
B3: H1H6960N: human IgG1 Fc form of H2M6960N; anti-PRLR; HCVR/LCVR SEQ ID NOs 322/330 (antibody, V domains shown)
VH: EVQLVESGGGLVKPGGSLRLSCAASGITFSSYSMNWVRQAPGKGLEWVSSISTRSSLIHYADSVKGRFTISRDNAKNSLYLQMNSLRDEDTAVYYCARWDAAAAFDYWGQGTLVIVSS
VL: DIQLTQSPSFLSASVGDRVTITCWASQGISSYLAWYQQKPGKAPKLLIYVASTLQSGVPSRFSGSGSGTEFTLTISSLQPEDFATYFCQQLNSYPLTFGGGTKVEIK
modifications: human IgG1 Fc
B4: H1H6966N: human IgG1 Fc form of H2M6966N; anti-PRLR; HCVR/LCVR SEQ ID NOs 338/346 (antibody, V domains shown)
VH: QVQLVQSGAEVQKPGASVKVSCKVSGYTLTALSIHWVRQAPGKGLEWMGNFDPGDGETIHAQKFQGRVTMTGDTSTDTAYMELSSLRSEDTAVYYCVGVTFDYWGQGTLVTVSS
VL: EIVMTQSPATLSVSPGERATLSCRASQSVASNLAWYQQKPGQAPRLLLYGASTRATGIPARFSGSGSGTEFTLTISSLQSEDFALYYCQHYNNWPLTFGGGTKVEIK
modifications: human IgG1 Fc
B5: H1H6967N: human IgG1 Fc form of H2M6967N; anti-PRLR; HCVR/LCVR SEQ ID NOs 354/362 (antibody, V domains shown)
VH: EVQLVESGGDLVHPGRSLRLSCAASGFPFDEYAMHWVRQVPGKGLEWVSGISWSNNNIGYADSVKGRFTISRDNAKNSLYLQMNSLRPEDTAFYYCAKSGIFDSWGQGTLVTVSS
VL: B4 VL with A30S, S31R, N32D, L48I, Y49H, T69A, T74I, L85V, H90Q
modifications: human IgG1 Fc
B6: H1H6975N: human IgG1 Fc form of H2M6975N; anti-PRLR; HCVR/LCVR SEQ ID NOs 370/378 (antibody, V domains shown)
VH: EVHLVESGGGLVQPGGSLRLSCAASGFTFSSYEMNWVRQTPGKGLEWISHISSRSVIIYYADSVKGRFTISRDNAKNSLFLQMNSLRAEDTAVYFCAGITIFGIPEYWGQGTLVTVSS
VL: EIVLTQSPATLSLSPGERATLSCRASQSVSSYFAWYQQKPGQAPRLLIYDASSRATGIPTRFSGSGSGTDFTLTISSLEPEDFAVYYCQQRSSWPITFGQGTRLEIK
modifications: human IgG1 Fc

Experiments:
[1] = test system: HEK293 (non-expressing parental cells); test: FACS cell surface binding
Description: (§1) The ability of anti-PRLR antibodies to selectively bind PRLR expressing cell lines was next determined. Human, monkey macaca fascicularis, and mouse PRLR constructs with an HA tag were stably introduced into HEK293 cells via Lipofectamine 2000-mediated transfection methodology. Transfectants (HEK293/hPRLR, HEK293/mfPRLR and HEK293/mPRLR) were selected for at least 2 weeks in complete growth media plus G418.
(§2) Cell surface expression of PRLR on 293/hPRLR cells was assessed via FACS analysis. Briefly, 1×10^5 cells were incubated with 10 μg/ml of Control antibody I, or an isotype control for 30 min on ice in antibody dilution buffer. Following two washes with antibody dilution buffer, cells were incubated with 10 μg/ml of PE conjugated anti-human secondary antibodies for 30 min on ice. Following two additional washes, samples were run on a Hypercyt® cytometer and analyzed in FORECYT™ (IntelliCyt, Albuquerque, N. Mex.). The mean fluorescence intensities (MFI) were expressed as fold change above isotype control levels (background). FACS binding confirmed that Control I selectively bound to 293/hPRLR expressing cells with MFIs that were 30 fold above background (isotype ctrl) levels and less than 2 fold binding on parental cells.
(§3) Next, the anti-PRLR antibodies of the present invention were tested via FACS for selective binding to the engineered overexpressing PRLR HEK293 cell lines, as well as to non-expressing HEK293 cells and a native PRLR expressing cell line (T47D).

HEK293/hPRLR = molecular target: T1, HEK293/hPRLR (Homo sapiens, UniProt P16471); test: FACS cell surface binding
T1 construct: HA; expressed in transfected cells; host or cells: HEK293
T1 sequence (P16471 25-622): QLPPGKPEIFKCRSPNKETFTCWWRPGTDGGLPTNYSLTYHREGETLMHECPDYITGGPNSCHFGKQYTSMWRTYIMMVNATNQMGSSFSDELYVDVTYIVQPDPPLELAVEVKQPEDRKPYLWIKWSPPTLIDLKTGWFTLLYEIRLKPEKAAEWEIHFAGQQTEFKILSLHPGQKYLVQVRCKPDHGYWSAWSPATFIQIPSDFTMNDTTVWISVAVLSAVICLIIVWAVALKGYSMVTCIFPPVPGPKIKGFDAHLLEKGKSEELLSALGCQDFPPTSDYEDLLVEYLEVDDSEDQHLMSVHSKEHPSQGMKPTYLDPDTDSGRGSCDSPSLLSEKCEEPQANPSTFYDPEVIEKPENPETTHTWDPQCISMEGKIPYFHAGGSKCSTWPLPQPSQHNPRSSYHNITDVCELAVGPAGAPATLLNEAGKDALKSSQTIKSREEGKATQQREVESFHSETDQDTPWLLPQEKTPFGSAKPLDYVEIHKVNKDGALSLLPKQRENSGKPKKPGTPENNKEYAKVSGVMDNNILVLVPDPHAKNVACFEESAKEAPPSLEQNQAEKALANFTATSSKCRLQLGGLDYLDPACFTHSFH
Description: as §1, §2, §3

HEK293/mPRLR = molecular target: T2, HEK293/mPRLR (Mus musculus, UniProt Q08501); test: FACS cell surface binding
T2 construct: HA; expressed in transfected cells; host or cells: HEK293
T2 sequence (Q08501 20-608): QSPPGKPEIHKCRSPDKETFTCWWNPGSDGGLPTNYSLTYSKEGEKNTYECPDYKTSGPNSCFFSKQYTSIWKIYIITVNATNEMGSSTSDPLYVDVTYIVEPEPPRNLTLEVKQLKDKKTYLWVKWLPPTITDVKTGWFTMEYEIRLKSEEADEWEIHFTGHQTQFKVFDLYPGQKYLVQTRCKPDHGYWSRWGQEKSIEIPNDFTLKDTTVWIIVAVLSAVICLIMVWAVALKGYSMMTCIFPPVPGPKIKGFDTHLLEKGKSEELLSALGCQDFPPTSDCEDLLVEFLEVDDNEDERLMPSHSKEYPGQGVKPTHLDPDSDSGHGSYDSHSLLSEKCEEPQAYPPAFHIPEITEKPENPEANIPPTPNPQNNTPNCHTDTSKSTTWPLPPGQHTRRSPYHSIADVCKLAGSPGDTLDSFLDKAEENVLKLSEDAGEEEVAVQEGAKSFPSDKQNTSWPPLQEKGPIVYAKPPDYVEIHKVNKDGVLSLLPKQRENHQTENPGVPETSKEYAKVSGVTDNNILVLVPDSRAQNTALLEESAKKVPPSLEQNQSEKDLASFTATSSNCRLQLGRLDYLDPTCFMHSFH
Description: as §1, §2, §3

[2] = molecular target: T3, T47D (native PRLR expressing cell line) (Homo sapiens, UniProt P16471); test: FACS cell surface binding
T3 construct: a native PRLR expressing cell line (T47D); endogenous in cells; host or cells: T47D
T3 sequence (P16471 25-622): T1 sequence (P16471 25-622)
Description: as §1, §2, §3

HEK293/mfPRLR = test: FACS cell surface binding; set-up: species or system macaca fascicularis
Description: as §1, §2, §3

[3] = molecular target: T4, PRLR-expressing cells (T47D) (Homo sapiens, UniProt P16471); test: Antibody binding and internalization by PRLR-expressing cells (imaging); format: cell-based; settings: [mAb] (0.67 nM); for % Internalization relative to Control I: alexa488 intensity in intracellular vesicles, 1 h at 37° C.; for % Total Binding relative to Control I: whole cell alexa488 intensity at 37° C.
T4 construct: a native PRLR expressing cell line (T47D); endogenous in cells; host or cells: T47D
T4 sequence (P16471 25-622): T1 sequence (P16471 25-622)
Description: In this Example, the internalization of anti-PRLR antibodies by PRLR-expressing cells (T47D) was assessed. Briefly, 20,000 T47D cells were seeded in collagen coated 96 well plates. […] Cells were then incubated with alexa488 conjugated anti-hFc Fab secondary antibodies for 30 minutes on ice followed by two additional PBS washes. Antibodies were allowed to internalize for 1 h at 37° C. in internalization buffer (PBS+2% FBS) or remained at 4° C. Cells were fixed in 4% formaldehyde, nuclei were stained with DRAQ5 (Cell signaling), and images were acquired on the ImageXpress micro XL (Molecular Devices). Whole cell alexa488 intensity at 37° C. (Binding) and the alexa488 intensity in the intracellular vesicles at 37° C. (Internalization) were determined via Columbus image analysis software (PerkinElmer).

HEK293/mfPRLR, sequence (as listed by the source): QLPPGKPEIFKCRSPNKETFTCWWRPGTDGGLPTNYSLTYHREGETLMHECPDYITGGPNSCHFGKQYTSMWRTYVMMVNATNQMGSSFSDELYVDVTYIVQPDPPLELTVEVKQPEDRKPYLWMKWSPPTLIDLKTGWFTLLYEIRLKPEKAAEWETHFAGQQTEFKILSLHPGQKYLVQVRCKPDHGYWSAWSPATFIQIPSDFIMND

| Molecule | FACS Cell Binding (Fold Above Background) [1] | FACS Cell Binding (Fold Above Background) (HEK293/hPRLR) | FACS Cell Binding (Fold Above Background) (HEK293/mPRLR) | FACS Cell Binding (Fold Above Background) [2] | FACS Cell Binding (Fold Above Background) (HEK293/mfPRLR) | % Internalization relative to Control I [3] | % Total Binding relative to Control I [3] |
| --- | --- | --- | --- | --- | --- | --- | --- |
| B1 | 1 Fold Above Background | 35 Fold Above Background | 1 Fold Above Background | 37 Fold Above Background | 30 Fold Above Background | 169.0% | 161.5% |
| B2 | 1 Fold Above Background | 6 Fold Above Background | 2 Fold Above Background | 9 Fold Above Background | 11 Fold Above Background | 15.3% | 2.0% |
| B3 | 1 Fold Above Background | 29 Fold Above Background | 1 Fold Above Background | 33 Fold Above Background | 23 Fold Above Background | 120.0% | 89.7% |
| B4 | 1 Fold Above Background | 29 Fold Above Background | 1 Fold Above Background | 31 Fold Above Background | 18 Fold Above Background | 137.2% | 111.3% |
| B5 | 1 Fold Above Background | 38 Fold Above Background | 2 Fold Above Background | 41 Fold Above Background | 28 Fold Above Background | 168.6% | 158.6% |
| B6 | 1 Fold Above Background | 38 Fold Above Background | 1 Fold Above Background | 46 Fold Above Background | 29 Fold Above Background | 214.2% | 225.9% |
